“And” between values parts separate entries of the source, which are not always exact repeats. Equal entries are not always repeated.
Biological target: the molecule itself
Experiment: immunoblot with non-reducing loading buffer; HEK293T transfected with varying concentrations of SDC4 plasmids; SDS-PAGE, positions of SDC4 tetramer, dimer and monomer

B1: Flag-tagged full-length mouse SDC4 (receptor, UniProt O35988 24-198, looked up)
chain: ESIRETEVIDPQDLLEGRYFSGALPDDEDAGGSDDFELSGSGDLDDTEEPRPFPEVIEPLVPLDNHIPENAQPGIRVPSEPKELEENEVIPKRAPSDVGDDMSNKVSMSSTAQGSNIFERTEVLAALIVGGVVGILFAVFLILLLVYRMKKKDEGSYDLGKKPIYKKAPTNEFYA
notes: Plasmids provided by GenePharma; Seen as monomer, dimer and tetramer bands on non-reducing blots; also called Flag-SDC4; Flag (SDC4); source: HEK293T, transfected (pcDNA 3.1), in lysate; not shown: Flag, C-terminal, kept
stoichiometry N: 2 and 4

Source: publication PMC11626941, “FBLN7 mediates vascular smooth muscle cell phenotype switching and vascular remodeling in hypertension” (Theranostics, 2024)
